# In publication PMC11967829, “Nudix Hydrolase 13 Impairs the Initiation of Colorectal Cancer by Inhibiting PKM1 ADP‐Ribosylation” (Advanced Science, 2025):
# B1: purified recombinant PKM1 (natural protein)
# chain: not shown
# notes: PKM1, the M1 splice isoform of pyruvate kinase M (PKM); also called purified PKM1; source: purified recombinant
# Columns and labels:
# recombinant human PARP1 = molecular target: T1, recombinant human PARP1 (human, UniProt P09874 1-1014); experiment: pull-down; in vitro pull-down of PKM1 and PARP1 (Figure 5E); details: both partners purified
# T1 construct: PARP1 (poly ADP-ribose polymerase 1), human, recombinant; The source is named for the in vitro PARylation assay; source: bought: Sino Biological
# [1] = molecular target: B1; experiment: pull-down; in vitro pull-down of N13 peptide with purified PKM1 or PKM2, Coomassie blue staining (Figure 7D); details: both partners purified
# T1 sequence (P09874 whole entry): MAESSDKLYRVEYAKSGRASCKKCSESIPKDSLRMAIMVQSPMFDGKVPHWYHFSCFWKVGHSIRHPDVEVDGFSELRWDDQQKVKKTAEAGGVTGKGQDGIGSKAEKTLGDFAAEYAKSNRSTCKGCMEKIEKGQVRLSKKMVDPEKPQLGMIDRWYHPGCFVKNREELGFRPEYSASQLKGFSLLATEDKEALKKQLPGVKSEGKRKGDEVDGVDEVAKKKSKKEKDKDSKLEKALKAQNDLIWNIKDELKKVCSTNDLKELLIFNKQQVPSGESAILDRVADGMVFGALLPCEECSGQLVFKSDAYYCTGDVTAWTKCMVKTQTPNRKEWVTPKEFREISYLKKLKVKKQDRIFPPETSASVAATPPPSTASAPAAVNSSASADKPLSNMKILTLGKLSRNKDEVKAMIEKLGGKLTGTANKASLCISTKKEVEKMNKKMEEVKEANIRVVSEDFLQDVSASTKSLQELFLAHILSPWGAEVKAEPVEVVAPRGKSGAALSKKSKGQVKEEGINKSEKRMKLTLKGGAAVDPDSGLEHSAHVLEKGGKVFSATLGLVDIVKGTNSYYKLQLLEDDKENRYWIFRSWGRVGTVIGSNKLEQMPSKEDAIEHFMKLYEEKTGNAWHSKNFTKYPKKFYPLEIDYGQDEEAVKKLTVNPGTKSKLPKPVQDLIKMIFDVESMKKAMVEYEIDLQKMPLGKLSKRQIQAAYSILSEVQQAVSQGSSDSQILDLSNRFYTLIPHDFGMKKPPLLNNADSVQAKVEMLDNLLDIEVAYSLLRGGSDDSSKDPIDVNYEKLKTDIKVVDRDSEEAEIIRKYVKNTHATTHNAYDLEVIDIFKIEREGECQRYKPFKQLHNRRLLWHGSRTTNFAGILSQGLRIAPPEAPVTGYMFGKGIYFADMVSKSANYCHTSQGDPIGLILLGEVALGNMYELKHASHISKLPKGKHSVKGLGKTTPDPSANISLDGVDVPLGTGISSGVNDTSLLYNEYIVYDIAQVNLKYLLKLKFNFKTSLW
binding result (recombinant human PARP1),binding result [1],Binder
binds,–,B1
–,binds,"GFCDIGESVEETIRREVAEEVGL (peptide, UniProt Q86X67 230-252, looked up, The peptide was synthesized conjugated with the membrane-penetrating peptide iRGD (N13-iRGD); also called N13-iRGD; source: synthetic peptide) [N13 peptide (mimic peptide of NUDT13 230–252 AA)]"
